The data set relates to Bacillus subtilis DB104 (SP-AmyQ fusion secretion). Kind of data set: AmyQ secretion efficiency, weighted average sort bin (1 = best secretion, 10 = worst) (bin number (weighted average, 1-10)); higher = lower secretion efficiency. The method, boiled down: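 With fluorescein-starch as substrate, a B. subtilis DB104 library expressing mature AmyQ fused to designed signal peptides (integrated at amyE) was encapsulated at about 0.3 cells per ~65 nL alginate bead. After about 13 h at room temperature, beads were nile red stained, and occupied beads were sorted by large-particle flow cytometry into 10 equally populated bins by green/red fluorescence ratio. Illumina sequencing of the amplicons in each bin was used to calculate the secretion score, which is the read-frequency-weighted average bin number, normalised to beads per bin, with low-abundance sequences left out.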

In the case of MKKRLIAPMLLSAASLAFFAMSGSCQAAAY, the AmyQ secretion efficiency stood at 2.58. Sequence MKRLTLVCSIVFILFILFYDLKIGTDEASAKTA registered an AmyQ secretion efficiency of 4.35. MAIIIAIIAAVIVIAALITFNVINASPG showed an AmyQ secretion efficiency of 9.99. For MLKRTSFVSSLKKSSAVLLSILLPSGQAHAQSA, the AmyQ secretion efficiency was 3.11. As for MRMLWRSLALCGLALTLALPCAQAAEP, the AmyQ secretion efficiency turned out to be 2.19.

Take MIAYFGKCLLLVTIMFLGVLFGMFATQQANHG: the AmyQ secretion efficiency turned out to be 6.56.

Consider MLKRTSFVSSSFISSAVLLSILLPSGQAHAQSA, for which the AmyQ secretion efficiency is 2.16. In the case of MKKKSQQQGGVSAVVGSSMAAAPAEAKTI, the AmyQ secretion efficiency was determined as 7.9. As to MKKRLIAPMLLSAASLAFFAMSGSNQAAAY, the AmyQ secretion efficiency turned out to be 3.88. As for MPYLKRVLLLLVTGLFMSLFGDTATASAQTG, the AmyQ secretion efficiency was determined as 1.23.

MKMKSGMEQAVSVLLLLSRLPVQASLTSR gave an AmyQ secretion efficiency of 6.52. In the case of MKRQKQKYLLLGILCSAAVFLIGAPSRALGAEV, the AmyQ secretion efficiency is 3.43. In the case of MKLRKVLTGSVLSLGLLVSASPAFATED it was 2.67; in that of MNLRKILLSSALSLGMLVSAAPVLATEE, 1.83.

MHLIRAAGAVCLAVVLIAGCRKNSVQHQAEGENT came in with an AmyQ secretion efficiency of 5.67.

MKKRLIAPMFSSLLSAASLAFFAMSGSAQAAAY gave an AmyQ secretion efficiency of 3.7.

MKRIRIPMTLRKKRALTIAPLSFASAEEN returned an AmyQ secretion efficiency of 7.44. MNLRKILLSSALSLGMLEDDAPVLATSS came in with an AmyQ secretion efficiency of 2.76. The sequence MRKILLSSALSLGMLVSAAPVLATSS registered an AmyQ secretion efficiency of 1.66. With MMIKQCVICLSLLVFGTEEDAHAEET, the AmyQ secretion efficiency is 3.44. As to MTLALRVSALTPSTTLAITAKAKEL, the AmyQ secretion efficiency came to 7.08. For the sequence MKRRKTAYLLLGILCSAAVFLIGAPSRALGAEV, the AmyQ secretion efficiency stood at 2.77.

Regarding MKRKKVLLSALLLLLFAFEPSASGKKL, the AmyQ secretion efficiency is 2.93. In the case of MSKLIMALVILGALGTSYISADSS it was 7.07. In the case of MKKRLIAPMLLSAASLAFFAMSGSAQVAAY it was 5.79; in that of MKRTWNVCLTALLSVLLVAPFHAEAKKP, 4.3. Sequence MKRLLSTLLIGIMLLTFAPSTFAKQD had an AmyQ secretion efficiency of 1.72. In turn, MTKKTKNRLISSVLSTVVISSLLFPGAAGASSK registered an AmyQ secretion efficiency of 1.56. With MKVLLSALLLLLFAFEPSVSGKKL, the AmyQ secretion efficiency was found to be 6.17. For MKVLLSALLLLLFAFEPSASAKKL, the AmyQ secretion efficiency came to 1.92. Turning to MRSYIKVLTMCFLGLILFVPTALYDNS, the AmyQ secretion efficiency worked out at 8.55. Regarding MKSKGSIMACLILFSFTITTFINTETPSAFSN, the AmyQ secretion efficiency was found to be 5.71. Sequence MKKWIYVVLVLSIAGIGGFSVHMASS displayed an AmyQ secretion efficiency of 5.57. For MKKRKRRNFKRFIAAFLVLALMISLVPADGLAKST, the AmyQ secretion efficiency came out at 2.45.

For the sequence MKKQIITATTAVVLGSTLFAVGAASAQSI, the AmyQ secretion efficiency worked out at 2.23. In turn, MRPVFPYTLSAVLFLSCFFGARQTEASASKR had an AmyQ secretion efficiency of 2.08.

As to MKRSISIFITCLLITLLTMGGMIASPASTAGT, the AmyQ secretion efficiency came out at 4.46.

For the sequence MIKKCSVCLWILVLLLSCLSGKSAYAATS, the AmyQ secretion efficiency was 2.24. The value for MRIKQCVICLSLLVFGTTAAHAEET was 2.98; that for MTMLRKIIGWILLLCIIPLFAFTVIASGAED was 6.01; that for MTMLRKIIGWILLLCIIPLFAFTVIPVVTVASGKEV was 4.51. On to MKSSSSALLLLLFAFEPSASGKKL, for which the AmyQ secretion efficiency amounted to 7.85.

On to MHLIRAAGAVCLAVVLIAGCRDEEDEHQAEGENT, for which the AmyQ secretion efficiency turned out to be 4.66. The value for MQRKRLLTIYIMLLGLIAWFPGAAQAEEK was 1.93; that for MGSGTSMLFSTLALAAGMTAAAAGGAGTIHAQQP was 2.01; that for MRKKLKWLSFLLGFIILLFLFTFGFSNNDS was 5.5. The sequence MKVKKSALLLLLFAFEPSASGKKL showed an AmyQ secretion efficiency of 7.2. The value for MKLKKRVSMFLVALTMCGGLFVTPAKYVKT was 5.18; that for MRNLTKTSLLLAGLCTAAQMVFVTHASGEES was 2.76. In the case of MFNRLFRVCFLAALIMAFVFTLPNSVYAQKP it was 2.33. In the case of MNKKYSSKQGCRIFTSALFPTFSSVTAAQG, the AmyQ secretion efficiency is 4.96. In the case of MKLWMRKTLVVLFTIVTFGLKKRPAALMADKP, the AmyQ secretion efficiency was determined as 6.91. The sequence MRMLWRSKRLCGLALTLAPCAQAAEP came in with an AmyQ secretion efficiency of 6.7. MKKRLIAPMLLSAASLAFFAMSGSAQLAAY: the AmyQ secretion efficiency was determined as 6.99. Sequence MLKKKWMVGLLAGCLAAGGFSYNAFHTEN yielded an AmyQ secretion efficiency of 6.18. For MLKKKWMVGLLAGCLAAGGFSYNAFAKRK, the AmyQ secretion efficiency was determined as 5.47. MRNLTKTSLLLAGLCTAAQMVFVTHCSAEES returned an AmyQ secretion efficiency of 2.79. In the case of MKKVLMAFIICLSLILSVLAAPPSGMKAESV it was 1.84; in that of MKRIRIPMTLALGAALTIAPLSFDSAEEN, 7.3.

The sequence MKKRFSLIMMTGLLFGLTSPAFAADE gave an AmyQ secretion efficiency of 3.46. Take MKLSVKIRKVLTVAAAAMTAKMYATAKGN: the AmyQ secretion efficiency was 6.94. In turn, MTKRITYSLLALLAVVAFAFTDSSKAKAAEA returned an AmyQ secretion efficiency of 2.05.

For the sequence MTMLRKIIGWILLLCIIPLFAFTVIISGKEV, the AmyQ secretion efficiency came out at 5.66. Take MKSKWMSGLLLVAVGFSFTQVMVHSGET: the AmyQ secretion efficiency was 6.94.

Sequence MRKRKRRLILSAVLFLSCFFGARQTEASASKR gave an AmyQ secretion efficiency of 2.98. On to MKQFAITLSVLCALILLVPTLLVIPFVSAAEAGASV, for which the AmyQ secretion efficiency came out at 3.34. In turn, MNLRKILLFIALFLMMLTVSAAPVLATSS displayed an AmyQ secretion efficiency of 1.67. The sequence MTMLRKIRRKKLLLCIIPLFAFTVIASGKEV displayed an AmyQ secretion efficiency of 6.88.

Turning to MKVLLSALLLLLFAFEPSCSGKKL, the AmyQ secretion efficiency worked out at 5.53. In turn, MLCVMMLLFSAIASFPVSAQEKDQ yielded an AmyQ secretion efficiency of 5.69. MKKVMLATALFLGLTPDGANAADL: the AmyQ secretion efficiency was 4. MKRYKQRLRVWMVFLMNWVTPDRKTAAAAVY showed an AmyQ secretion efficiency of 6.82. MKRKKRGSKRTSALSLGLLVSAPTASFAAES registered an AmyQ secretion efficiency of 6.79. On to MRKNRILALFVLSLGLLRRKVTPVSAASK, for which the AmyQ secretion efficiency is 7.91. MRKTIFAFLTGLMMFIFTSSGTITAASASPD returned an AmyQ secretion efficiency of 1.89. In the case of MKKVLMAFIICLSLILSVLAAPPSGAKTESV it was 5.06; in that of MKRFSTAYLLLGILCSAAVFLIGAPSRALGAPK, 1.81. The value for MKKQIKKKKTAVVLGSTLFAGAASAQSI was 7.3; that for MRPVFPLILSAVLFLSCFKKKRRTRASASKR was 6.66; that for MVKKWLRRRRVMLSVLSTFTYSASAVGV was 6.88. The value for MKKRITYSLLALLAVVAFAFTDSSKAKKAEA was 4.79. Take MKKRFFGPIILAFILFAGAIVIPS: the AmyQ secretion efficiency was determined as 5.76.

Regarding MKKWMITIAMLILAGIALFVFISPSKSHKT, the AmyQ secretion efficiency was 6.65.

With MKKLVLCVSILAVILSGVALYQLS, the AmyQ secretion efficiency came to 4.11. MNKPTKLFILLALAALMFAAAAGGAGTIHAQQP registered an AmyQ secretion efficiency of 1.87. Regarding MKKTIMFVAVAALSTTAFGAHASAKEI, the AmyQ secretion efficiency came out at 3. In the case of MKKRLIGFLVLVPALIMSGITLIEPNKK it was 7.44. The value for MKKIMSGKKGMVLLTIFCFSPQASAAYD was 5.2; that for MKRLLSTLLIGIMLLTFAPSAFAAQK was 1.73. For MKSKVKIAGVLTVAAAAMTAKMYATAKGN, the AmyQ secretion efficiency was 7.17. For the sequence MKLAKRVSALTPSTTLAIKKKKRAKAKEL, the AmyQ secretion efficiency was determined as 7.08. MHLIRAAGAVCLAVVLIAGCRKRRRQHQAEGENT returned an AmyQ secretion efficiency of 6.76.

MTKLKMLSMLRKKKRRLFIFSSQALAVQY had an AmyQ secretion efficiency of 6.63. In turn, MYKKFVPRTQYSRLFFVSFEMMENPHALDY displayed an AmyQ secretion efficiency of 7.24. In turn, MKKWMITIAMLILAGIALFVFISPTSSSTTFLKSHKT showed an AmyQ secretion efficiency of 7.57. Consider MRPVFPLILSAVLFLFGARQTEASASKR, for which the AmyQ secretion efficiency turned out to be 5.49. In the case of MFNTLFSVCFLAALIMAFTLPNSVYAQKP it was 4.02; in that of MTMLRKNMSIIGWILLLCIIPLFAFTVIASGKEV, 5.45. In turn, MKVCQKSIVRTNFLVSLIIGTFVISVPFMANAQSD returned an AmyQ secretion efficiency of 2.34.

In the case of MKKKQVSHAIIISVMLSFVIAVFRRHRKHASELTP, the AmyQ secretion efficiency came out at 7.4.

MKLSVKIAGVLTVAAAAMSTAKMYATAKGN yielded an AmyQ secretion efficiency of 7.14. Take MKRRRQRQTTLPLLIVCLAFSSFSASARAASE: the AmyQ secretion efficiency turned out to be 3.83. In turn, MKKRLIAPMLLSAASLAFFAMSGSLQAAAY yielded an AmyQ secretion efficiency of 5.33.

As for MKKLLAAGIIGLSIASPSFAAEK, the AmyQ secretion efficiency turned out to be 4.78. In turn, MTKKAWFLPLVCVSGWLAPAASASAQTT returned an AmyQ secretion efficiency of 2.07. The sequence MKKQIITATTAVVLGSTLFAGAASTQSI returned an AmyQ secretion efficiency of 2.06. For MKKRLIAPMLLSAASLAFFAMSGSQQAAAY, the AmyQ secretion efficiency was 4.52.

MKKTIMSFVAVAALSTTAFGAHRSAKEI displayed an AmyQ secretion efficiency of 5.69. As to MNKPTKLRRKKKRAAGMTAAAAGGAGTIHAQQP, the AmyQ secretion efficiency came to 7.88.

Values taken from the supplement of paper PMC9942255.
